Experimental data: article doi:10.1101/2024.02.16.579611 (bioRxiv, 2024)

Experiments:
crystal structure = target: the molecule itself; test: crystal structure
[1] = target: T1, KorB (wild type), C-terminally His-tagged (plasmid RK2, UniProt P07674 1-358); test: ITC
T1 sequence: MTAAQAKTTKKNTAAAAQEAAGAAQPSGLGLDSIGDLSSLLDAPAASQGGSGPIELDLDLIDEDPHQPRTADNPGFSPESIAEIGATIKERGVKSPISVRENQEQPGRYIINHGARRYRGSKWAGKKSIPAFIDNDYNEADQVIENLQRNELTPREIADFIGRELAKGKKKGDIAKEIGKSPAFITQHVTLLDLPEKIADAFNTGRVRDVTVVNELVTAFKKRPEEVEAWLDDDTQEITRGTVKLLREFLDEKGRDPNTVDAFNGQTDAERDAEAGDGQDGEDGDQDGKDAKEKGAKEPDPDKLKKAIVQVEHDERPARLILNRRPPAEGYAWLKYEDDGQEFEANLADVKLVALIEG

B1: KorA (wild type), C-terminally His-tagged (natural protein)
chain: MKKRLTESQFQEAIQGLEVGQQTIEIARGVLVDGKPQATFATSLGLTRGAVSQAVHRVWAAFEDKNLPEGYARVTAVLPEHQAYIVRKWEADAKKKQETKR
B1 was tested, and the binding result (crystal structure) was “binds” and the Kd [1] was 4.2 ± 0.5 µM.
